# Source: the nanobody polyreactivity screen of Harvey et al. (2022)
# Experiment: yeast display, Sf9 membrane polyspecificity reagent, FACS + sequencing; frameworks hold sequencing errors
# How it was run: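 A nanobody's polyreactivity label depends on the gate it was sorted from. Yeast display cells were stained with 10% biotinylated, detergent-solubilized Sf9 membrane reagent for 1 hour at 4 °C, enriched on streptavidin microbeads and sorted by FACS. The low and high (top ~1%) gates were set on anti-HA fluorescence for expression and streptavidin fluorescence for reagent binding.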
row,Sequence,polyreactivity (PSR sort gate)
1,QVQLVESVGGLVQAGGSLRLSCAASGRTFRWNAMGWYRQAPGKERELVAAISYSGGSTYYADSVKGRFTISRDNAKNTVYLQMNSLKPEDTAVYYCAKAYSWYPIFRGLDSWGQGTQVTVSS,high polyreactivity
2,QVQLVESVGGLVQAGGSLRLSCAASGRTFRYNAMGWYRQAPGKERELVASITSGGSTNYADSVKGRFTISRDNAKNTVYLQMNSLKPEDTAVYYCAAEAYFWQYERDYWGQGTQVTLSS,low polyreactivity
3,QVQLVESVGGLVQAGGSLRLSCAASGRTFSTKAMGWYRQAPGKERELVAVIPSSGVRTYYADSVKGRFTISRDNAKNTVYLQKNSLKPEDTAVYYCAKPYGYRLDYWGQGTQVTVSS,high polyreactivity
4,QVQLVESVGGLVQAGGSLRLSCAASGRTFWWNAMGWYRQAPGKEREFVAAIRSTGGRTYYADSVKGRFTISRDNAKNTVYLQMNSLKPEDTAVYYCAAYTLDPYGFLYEYWGQGTQVTVSS,high polyreactivity
5,QVQLVESVGGLVQAGGSLRLSCAASGRTIHFNTMGWYRQAPGKERELVAAIRWGGNTYYADSVKGRFTISRDNAKNTVYLQMNSLKPEDTAVYYCAADRWYYFLMYYWGQGTQVTVSS,low polyreactivity
6,QVQLVESVGGLVQAGGSLRLSCAASGRTLPWYAMGWYRQAPGKERELVAVIRWIGGRTYYADSVKGRFTISRDNAKNTVYLQMNSLKPEDTAVYYCAARPHYYYGWYYYWGQGTQVTVSS,high polyreactivity
7,QVQLVESVGGLVQAGGSLRLSCAASGSIFKSYAMGWYRQAPGKERELVAAITYRGGSTYYADSVKGRFTISRDNAKNTVYLQMNSLKPEDTAVYYCAKDQHRYYQVWGDYWGQGTQVTVSS,high polyreactivity
8,QVQLVESVGGLVQAGGSLRLSCAASGSIFRNYAMGWYRQAPGKERELVAAITYRGGTTYYADSVKGRFTISRDNAKNTVYLQMNSLKPEDTAVYYCNTASVSRLYGEYDYWGQGTQVTVSS,high polyreactivity
9,QVQLVESVGGLVQAGGSLRLSCAASGSIFSYYAMGWYRQAPGKERELVAAITSSGDSTYYADSVKGRFTISRDNAKNTVYLQINSLKPEDTAVYYCAAGILDLKLYFSSYDYWGQGTQVTVSS,low polyreactivity
10,QVQLVESVGGLVQAGGSLRLSCAASGSIFVPYAMGWYRQAPGKEREFVAAIYSGGGNTYYADSVKGRFTISRDNAKNTVYLQMNSLIPEDTAVYYCAAAYFYSSWSRYDYWGQGTQVTVSS,high polyreactivity
11,QVQLVESVGGLVQAGGSLRLSCAASGSILRRYAMGWYRRAPWKERELVAAIDGGGGTTYYADSVKGRFTISRDYAKKTVYLQMNSLKPEDNAVYYCAADASWELIAWAHYDYWGQGTQVSVSS,low polyreactivity
12,QVQLVESVGGLVQAGGSLRLSCAASGSIRYYAMGWYRQAPGKERELVAAISSRGTNTYYADSVKGRFTISRDNAKNTVYLQMNSLKPEDTAVYYCNAVVGLGYNYWGQGTQVTVSS,high polyreactivity
13,QVQLVESVGGLVQAGGSLRLSCAASGSTCQRYAIGWYRQAPGKERELVAAISDGGSTNYADSVKGRFTISRDNAKNTVYLQMNSLKPEDTAVSYCAAKYLSRYDYWGQGTQVTVSS,low polyreactivity
14,QVQLVESVGGLVQAGGSLRLSCAASGSTFDDNAMGWYRQAPGKERELVASITYRGGSTYYADSVKGRFTISRDNAKNTVYLQMNSLKPEDTAVYYCAKGHYFKYDYWGQGTQVTVSS,low polyreactivity
15,QVQLVESVGGLVQAGGSLRLSCAASGSTFGHYAMGWYRQAPGKERELVSAISTSGGRTYYADSVKGRFTISRDNAKNTVYLQMNSLKPEDTAVYYCATRRYGVDKFDYWGQGTQVTVSS,high polyreactivity
16,QVQLVESVGGLVQAGGSLRLSCAASGSTFLVYAMGWYRQAPGKERELVAAITQIDGSTYYADSVKGRFTISRDNAKNTVYLQMNSLKPEDTAVYYCAARYFWTYEYDYWGQGTQVTVSS,low polyreactivity
17,QVQLVESVGGLVQAGGSLRLSCAASGSTFVDYAMGWYRQAPGKERELVAAINSDGGGTYYADSVKGRFTISRDNAKNTVYLQMNSLKPEDTAVYYCNVEYVDYYAQRYGYDYWGQGTQVTLSS,low polyreactivity
18,QVQLVESVGGLVQAGGSLRLSCAASGSTFWTNAMGLYRQAPGKERELVATISKTTGRTYYADSVKGRFTISRDNAKNTVYLQMNSLKPEDTAVYYCAAEPYSWDTWVDYDYWGQGTQVTVSS,low polyreactivity
19,QVQLVESVGGLVQAGGSLRLSCAASGSTFYENTMGWYRQAPGKERELVAAISRSGVSTYYADSVKGRFTISRDNAKNTVYLQMNSLKPQDTAVYYCAAIVYRRYDYWGQGTQVTVSS,high polyreactivity
20,QVQLVESVGGLVQAGGSLRLSCAASGSTFYTYDMGWYRQAPGKERELVAAISRRDGITYYADSVKGRFTISRDNAKNTVYLQMNILKPEYTAVYYCAAEDAYLYYDFDYWGQGTQVTVSS,low polyreactivity
21,QVQLVESVGGLVQAGGSLRLSCAASGSTISLYKGWYRQAPGNETELVAAITYSGGRTYYADSVKGRFTISRDNAKNTVYLQMNSLKPEDTAVYYCATVFNDLTVYEYWSRFDYWGQGTQVTVSS,low polyreactivity
22,QVQLVESVGGLVQAGGSLRLSCAASGTIFGWYAMGWYRQAPGKEREMVATIDASGRSTFYADTVKGRFTISRDNAKNTVYLQMNSLKPEDTAVYYFNSRYPRQYWGGYDYWGQGTQVTVSS,low polyreactivity

row,Sequence,polyreactivity (PSR sort gate)
1,QVQLVESVGGLVQAGGSLRLSCAASGYIFATNAMGWYRQAPGKERELVAAITRSGGRTYYADSVKGRFTISRDNAKNTVYLQMNSLKPEDTAVYYCAAARPTNIYYYWGQGTQVTVSS,high polyreactivity
2,QVQLVESVGGLVQAGGSLRLSCAAYGRIFAWYAMGWYIQAPGKERELVAVITSSDGSTHYADSVKGRFTISRDNAKNTVYLQMNSLKPEDTAVYYCNADSQRPRRSSTYWGQGTQVTVSS,low polyreactivity
3,QVQLVESVGGLVQAGGSLRLSCASSGSTFTYYAKVWYRQAPGKERELVAAISCTGTSTYYADSVKGRFTISRDNAKNTVYFQMNSLKPEDTAVYYSASTYRGYSGYKRRDYWGQGTQVTVSS,high polyreactivity
4,QVQLVESVGGLVQAGGSLRLSLAASGFTFWYYAMGWYRQAPGKERELVAVINTSGGSTYADSVKGRFTISRDNAKNTVYLQMNSLKPEDTAVYYCAAEGISTYPYDYCGQGTQVTVSS,low polyreactivity
5,QVQLVESVGGLVQAGGSLRLSSAASGIIFRRYPMVWYREPPGKDRELVAAISSGGRTYYADSGKGRFTISRDNAKNSVYLHMNSLKQEDTAVYYCAARWWYKNKYWGQGTQVTVSS,high polyreactivity
6,QVQLVESVGGLVQAGGSLRLSSAASGYTSNIYAMGWYRQAPGTERELVASIRGRSGSTYYADSVKGRFTISRDNAKNSVYLQMNSLKPEDTAVYYCAGSRPWDFYRFGFDYWGQGTQVTVSS,high polyreactivity
7,QVQLVESVGGLVQAGGSLSISCAASGRIFPRNAMGWYRPAPGKERELVAAISSGGGGTYYADSVKGRFTISRDNAKNTVYLQMNSQKPEDTAVYYCAAYVVRWWCDGDYWGQGTQVTVSS,high polyreactivity
8,QVQLVESVGGLVQAGGSLSLRCAASGLISRRNAMGWYRQAPGKERELVAAISTGSSTNYADSVKGRFTISRDNAKNTVYLQMNSLKTEDTAFYYCATDYLAGAPCEGHVEREYDYWGQGTQVTVSS,low polyreactivity
9,QVQLVESVGGLVQAGGTLRLSCAASGRIFCIYAMGWYRPAPGKVRSLVATITGSGGSTYYADSVKGRFTISRDNAKNTVYLQLHSLKPEDTAVYYCAARYPVSGGYDYWGQGNQVTVSS,low polyreactivity
10,QVQLVESVGGLVQAVGSLRLSCAASGFTFSDYAMGWYRHAPGKERELVAAISTRCSSTYYADSVKGRFTISRDIAKNNVYLQMNSLKPEDTAVYYCNAVGSYSGYYYWGQGTQVTVSS,high polyreactivity
11,QVQLVESVGGLVQVGGSLRLSCAASGSILTDYGMGWYRQAPGKERELVAAITGSGGSTYYADSVKGRFTISRDNAKNTVYLQMNSLKPEDTAVYYCAKRHVGSRYLFDYWGQGTQVTVSS,low polyreactivity
12,QVQLVESVRGLVQAGGSLRLSCAASGRIIYLNGMGSYRQAPGKERELVAAISSSDDSTYYAVSVKGRFTISRDNATNTVYLQLNSLKPEDTAVYYCAAGYHQVQNYGDAYYWSELYSWGQGTQVTVSS,low polyreactivity
13,QVQLVESVVGLVQAGGSLPISCAASGSTFSANDMVWYSQPHGTERELVAAIDTGGTTYYADSVKGRFTISRDNAKNTVYLQMNSLKPEYTAVYYCNATIWYRDYGYWVQGTQVTVSS,low polyreactivity
14,QVQLVESVVGLVQAGGSLRLSCAASGRIFAYYAMGWYRQAPGKERELVAAISSSGGGTYYADSVKGRFTISRDNAKNTVYLQMNSLKPEDTAVYYCAKRVRRKYSVSHPYDYWGQGTQVTVSS,high polyreactivity
15,QVQLVESVVGLVQAGVSLRLSCSASGFIFGRYAMGWYRQAPGKERELVADISWNGGSTYYADSVKGRFTISRDNAKNTVYLQMNSLKPEDTAVYYCAADYYWASFKYPYLRPYDYWGLGTQVTVSS,high polyreactivity
16,QVQLVESVVGLVQARGTLRLSGATTGNTFYKNTMRWYRQPHGKERELVAAISQRGTRTYYADSVQGRFTISRDYAKNTVYLQMNSLKPEDTAVYYCPTVMSQVGFDYWGQGTQVTVSS,high polyreactivity
17,QVQLVESWGALVQAGGSLRLSCAPSGSSKLMLWEGIDRRLGNKGSWLPLIVLVVLRNYADSVKGRFTISRDNAKNTLYLQMNSLKPDDTAVYYCAATPIGSGGWGDYWGQGTQVTLSS,low polyreactivity
18,QVQLVESWGGIVQAGGILRLSFAAYGRIFASNAMGWYRKAPGKERELVAGISRNGGSTFYEDSVKGRYTISRDTAKNTVYLQMISLKPDDTAVYYCARYYTHSGGYRDRIYYYWGQGTQVTVSS,low polyreactivity
19,QVQLVESWGGLVQAGGSLRISCAASGRTFPDYAMGWYRQAPGKERELVAAISSGGGTYYADSVKGRFTISRDNAKNTVFLQMNSLKPEDTAVYYCAATGVPGWVGFDYCGQGTQVTVSS,low polyreactivity
20,QVQLVESWGGLVQAGGSLRLICAASGSTFRDYFLGWYRRAPGKERELVATISGSGGSTYYADSVKGRFTISRDNAKNTVYLQMNSLKPEDTAFYYCAAVSVSSWYDYWGQGTQVTVSS,low polyreactivity
21,QVQLVESWGGLVQAGGSLRLRFAASVRTFVSNAMGWYRQAPGKERELVARITGSGGNTYYADSVKGRFTISRDNEKNTVYLQMNSLKPEDTAVYYCNSDVFRKFGSPSGYKSHRYDYWGQGTQVTVSS,low polyreactivity
